Measurements taken from paper PMC6126627.

Assays:
Test in all cases: ELISA
[1] = molecular target: human plasma vitronectin (human)
[2] = molecular target: human plasma fibronectin (human)
[3] = molecular target: murine sarcoma laminin (mouse) (UniProt P19137)

“full-length recombinant P4 (rP4^G22-K274), Haemophilus lipoprotein e (from UniProt P26093 22-274) (natural protein)” gave a Kd [1] of 16.5 nM, a Kd [2] of 10.2 nM and a Kd [3] of 9.26 nM.
